According to PMC1277818, “Substrate specificity analysis of protein kinase complex Dbf2-Mob1 by peptide library and proteome array screening” (BMC Biochemistry, 2005):

B1: YOR362C: GST fusion yeast protein on proteome chip (protein, UniProt P21242 2-288, looked up)
Probable proteasome subunit …: TSIGTGYDLSNSVFSPDGRNFQVEYAVKAVENGTTSIGIKCNDGVVFAVEKLITSKLLVPQKNVKIQVVDRHIGCVYSGLIPDGRHLVNRGREEAASFKKLYKTPIPIPAFADRLGQYVQAHTLYNSVRPFGVSTIFGGVDKNGAHLYMLEPSGSYWGYKGAATGKGRQSAKAELEKLVDHHPEGLSAREAVKQAAKIIYLAHEDNKEKDFELEISWCSLSETNGLHKFVKGDLLQEAIDFAQKEINGDDDEDEDDSDNVMSSDDENAPVATNANATTDQEGDIHLE
modifications: GST tag
notes: GST fusion yeast protein on proteome chip
B2: YDR226W: GST fusion yeast protein on proteome chip (protein, UniProt P07170 3-222, looked up)
Adenylate kinase: SSESIRMVLIGPPGAGKGTQAPNLQERFHAAHLATGDMLRSQIAKGTQLGLEAKKIMDQGGLVSDDIMVNMIKDELTNNPACKNGFILDGFPRTIPQAEKLDQMLKEQGTPLEKAIELKVDDELLVARITGRLIHPASGRSYHKIFNPPKEDMKDDVTGEALVQRSDDNADALKKRLAAYHAQTEPIVDFYKKTGIWAGVDASQPPATVWADILNKLGKD
modifications: GST tag
notes: as for B1
B3: YLL008W: GST fusion yeast protein on proteome chip (protein, UniProt P32892 1-752, looked up)
ATP-dependent RNA helicase …: MVVGTKKYSNLDFVPTISDSEDDVPILDSSDDEKVEAKKTTKKRKGKNNKKKVSEGDNLDEDVHEDLDAGFKFDLDADDTTSNFQGWNFLAEGESNKDDAEAFVKKDVDLDKIIRRKGGLVKMAHIDSKQEEETEKEKVEKENDSDDEELAMDGFGMGAPMNNGDENQSEEEEEEEEKEEEEEEEEEQEEMTLEKGGKDDEIDEEDDSEEAKADFYAPETEGDEAKKQMYENFNSLSLSRPVLKGLASLGYVKPSPIQSATIPIALLGKDIIAGAVTGSGKTAAFMIPIIERLLYKPAKIASTRVIVLLPTRELAIQVADVGKQIARFVSGITFGLAVGGLNLRQQEQMLKSRPDIVIATPGRFIDHIRNSASFNVDSVEILVMDEADRMLEEGFQDELNEIMGLLPSNRQNLLFSATMNSKIKSLVSLSLKKPVRIMIDPPKKAATKLTQEFVRIRKRDHLKPALLFNLIRKLDPTGQKRIVVFVARKETAHRLRIIMGLLGMSVGELHGSLTQEQRLDSVNKFKNLEVPVLICTDLASRGLDIPKIEVVINYDMPKSYEIYLHRVGRTARAGREGRSVTFVGESSQDRSIVRAAIKSVEENKSLTQGKALGRNVDWVQIEETNKLVESMNDTIEDILVEEKEEKEILRAEMQLRKGENMLKHKKEIQARPRRTWFQSESDKKNSKVLGALSRNKKVTNSKKRKREEAKADGNGARSYRKTKTDRIADQERTFKKQKSTNSNKKKGFKSRR
modifications: GST tag
notes: as for B1
B4: YFR033C: GST fusion yeast protein on proteome chip (protein, UniProt P00127 1-147, looked up)
Cytochrome b-c1 complex …: MGMLELVGEYWEQLKITVVPVVAAAEDDDNEQHEEKAAEGEEKEEENGDEDEDEDEDEDDDDDDDEDEEEEEEVTDQLEDLREHFKNTEEGKALVHHYEECAERVKIQQQQPGYADLEHKEDCVEEFFHLQHYLDTATAPRLFDKLK
modifications: GST fusion
notes: as for B1
B5: YAL051W: GST fusion yeast protein on proteome chip (protein, UniProt P39720 1-1047, looked up)
Oleate-activated …: MVENSTQKAPHAGNDDNSSTKPYSEAFFLGFNNPTPGLEAEHSSTSPAPENSETHNRKRNRILFVCQACRKSKTKCDREKPECGRCVKHGLKCVYDVSKQPAPRIPSKDAIISRLEKDMFYWKDKAMKLLTEREVNESGKRSASPINTNNASGDSPDTKKQHKMEPIYEQSGNGDINNGTRNDIEINLYRSHPTMIMSKVMKREVKPLSENYIIIQDCFLKILVTSVFLDTSKNTMIPALTANANITRAQPSVANNLLKLKEMLIRQCQTEDEKNRVNEFTDRILQNTNSNRNLKIGMLLSMLYNSVGYQYLEDHCPQGGEYSDLLRNLINECEAILPSYEIIERYKNHFYEYVYPSLPFIELEIFEESLSQTIFPDPNNPSKVQIRMGSTHLRAKVENLSLLLVILKLSYMSIRFLDHSTADSSFYLSKEIIDKYPIPNDFILLSQRCLASENWCACANENIISCLLYIWSFFAFSPEEGDFFLEHPTDVISSLIMMLSTSIGLHRDPSDFPQLISPSTSDKRTLNHRRILWLSIVTVCSFEASLKGRHSVSPISLMALFLNIKDPDSLTVYMNRVRGDLSDINNHKLLRIHKFTFKRAQLALLLSDLDNLTMTYYGSFHLHSIEFIREKIEIFVEENFPIVPLKSVAQDKSDLDDMNVISEMNILSSENSSSFHNRIMNKLLMLRTSMAVFLHFETLITKDKSIFPFYKKYFMVSCMDALSLINYFNKFFNGEYRHAISSLTSFNVTKFIQLALSSTIFSLLGIILRIGLAIHMLSSEVQKLSGTTDPRIKELNTKVEKFSTLQRDLESALEGIYCSASEHLRFTYFPVFKMLALFDVIVQRMRKGELWHGIFTMIQMEQMHSRIIKTLSITLGVKLDKKDRLLEELMACNHVANFSVEDIDELNRNIKKEIQISSGLKPPVNTIDLTNGEPFGNAVPTFTKTWSSSLDNLEKLSSAAAVGQSLDYNSGLRQGPLAGGGSKEQTPIAGMNNLNNSINATPIVDNSSGSQLPNGFDRGQANNTPFPGYFGGLDLFDYDFLFGNDFA
modifications: GST tag
notes: as for B1

What was measured:
FHHDbf2-H6Mob1TM9 [1] = biological target: T1, FHHDbf2-H6Mob1TM9 (Saccharomyces cerevisiae, UniProt P22204+P40484); assay: Yeast proteome chip assay; assay type: biochemical; details: [γ-33P]ATP, chips in duplicate
T1 construct: made in house; host or cells: Hi5 insect cells (baculovirus)
T1 sequence (P22204 1-572): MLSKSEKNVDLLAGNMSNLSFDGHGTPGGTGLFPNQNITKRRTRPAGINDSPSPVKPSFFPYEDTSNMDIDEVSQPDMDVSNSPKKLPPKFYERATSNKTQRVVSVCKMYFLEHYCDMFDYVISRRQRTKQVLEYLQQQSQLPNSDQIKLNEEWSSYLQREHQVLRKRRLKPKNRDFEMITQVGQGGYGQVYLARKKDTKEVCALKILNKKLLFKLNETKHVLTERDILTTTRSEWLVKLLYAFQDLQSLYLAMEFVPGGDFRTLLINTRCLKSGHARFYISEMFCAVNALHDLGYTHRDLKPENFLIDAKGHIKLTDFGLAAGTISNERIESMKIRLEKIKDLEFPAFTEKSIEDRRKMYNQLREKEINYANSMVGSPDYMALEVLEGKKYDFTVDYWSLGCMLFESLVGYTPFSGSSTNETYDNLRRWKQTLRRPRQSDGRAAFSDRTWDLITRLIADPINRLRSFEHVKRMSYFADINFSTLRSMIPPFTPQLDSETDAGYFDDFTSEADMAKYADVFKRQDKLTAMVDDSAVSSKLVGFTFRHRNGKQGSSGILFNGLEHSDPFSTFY
T1 sequence (P40484 1-314 partner): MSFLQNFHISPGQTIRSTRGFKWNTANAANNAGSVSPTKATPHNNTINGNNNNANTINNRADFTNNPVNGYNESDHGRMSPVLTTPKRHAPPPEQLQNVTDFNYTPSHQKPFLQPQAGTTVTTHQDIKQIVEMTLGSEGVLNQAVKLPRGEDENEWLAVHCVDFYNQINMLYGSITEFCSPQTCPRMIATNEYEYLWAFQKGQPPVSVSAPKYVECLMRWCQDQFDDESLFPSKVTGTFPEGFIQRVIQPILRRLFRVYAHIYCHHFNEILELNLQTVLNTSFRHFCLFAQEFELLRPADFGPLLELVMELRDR
Procedure, shortened: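 GST-tagged yeast proteins (~4,400 strains) spotted on proteome microarrays, probed in duplicate with FHHDbf2-H6Mob1TM9 in DKB plus [γ-33P]ATP; kinase-dead Dbf2(N305A) and kinase-free buffer served as controls. Positives: 3 of 4 spots ≥2 SD above background, fourth ≥1.5 SD.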

FHHDbf2-H6Mob1TM9 [2] = biological target: T1, FHHDbf2-H6Mob1TM9; assay: Kinase assays of immunoprecipitated TAP-tagged proteins; assay type: biochemical; details: protein on IgG sepharose beads, ~13 ng Dbf2, 2 μCi [γ-32P]ATP, 30 min, room temperature, SDS-PAGE, autoradiography
Description: TAP-tagged strains were obtained for 22 of the 25 top candidates. TAP-tagged alleles for three of the genes (YJL108C, YBR285W, and YBR108W) were not available, and therefore these candidates were not subjected to further analysis. Asynchronous cultures of the 22 TAP-tagged strains were grown and the TAP-tagged proteins immunoprecipitated with IgG sepharose and analyzed by Western blotting (Figure 2A). Candidates were determined to be phosphorylated if a radioactive signal was detected at the molecular weight predicted for the tagged protein. […] The 17 TAP-tagged proteins that were expressed and purified were used in Dbf2-Mob1 kinase assays (Figure 2B). Of the 17, 10 were determined to be phosphorylated.
The TAP-tagged proteins were immunoprecipitated with IgG sepharose beads from asynchronous cultures, fractionated on SDS-PAGE and immunoblotted with anti-TAP. […] (B) The TAP-tagged proteins expressed in (A) were treated with ^FHHDbf2-^H6Mob1^TM9 in the presence of [γ-^32P]ATP, fractionated on SDS-PAGE and detected by autoradiography.
Yeast strains containing TAP-tagged genes (Open Biosystems) were grown to OD600 ~2.0 in 25 mL of YPD. […] Immunoprecipitated TAP-tagged proteins were analyzed by SDS-PAGE and detected by Western blotting using the primary antibody anti-TAP (Open Biosystems) followed by goat anti-rabbit horseradish peroxidase (HRP)-conjugate (Bio-Rad), and ECL. […]

[3] = test system: kinase-inactive FHHDbf2(N305A)-H6Mob1TM9; assay: Kinase assays of immunoprecipitated TAP-tagged proteins with the kinase-inactive complex; assay type: biochemical, Saccharomyces cerevisiae; details: protein on IgG sepharose beads, ~13 ng Dbf2, 2 μCi [γ-32P]ATP, 30 min, room temperature, SDS-PAGE, autoradiography
[4] = Table 3, GST fusion proteins on proteome chip, computer analysis
[5] = Table 4, the 25 proteins with highest signal relative to protein amount

| Molecule | Slide Signal (after normalization) (FHHDbf2-H6Mob1TM9 [1]; [4]) | Slide Signal (after normalization) (FHHDbf2-H6Mob1TM9 [1]; [5]) | Phosphorylation of TAP-tagged protein by Dbf2-Mob1 (FHHDbf2-H6Mob1TM9 [2]) | Phosphorylation of TAP-tagged protein by kinase-inactive Dbf2(N305A)-Mob1 [3] |
| --- | --- | --- | --- | --- |
| B1 | 0.9895 | 0.9895 | phosphorylated by Dbf2-Mob1 | not its kinase inactive form |
| B2 | 3.1016 | 3.1016 | phosphorylated by Dbf2-Mob1 | not its kinase inactive form |
| B3 | 0.0702 | – | – | – |
| B4 | 0.042 | – | – | – |
| B5 | – | 81.8589 | – | – |
